Experimental data published in patent US20250136713A1 (DENALI THERAPEUTICS, published 2025).
Where a chain is given by its changes, count along the chain named.

B1: SEQ ID NO: 10 light chain paired with Anti-HER2_D2 heavy chain control (SEQ ID NO: 92) (antibody, human IgG1, kappa, V domains shown)
VH: EVQLVESGGGLVQPGGSLRLSCAASGFTFTDYTMDWVRQAPGKGLEWVADVNPNSGGSIYNQRFKGRFTLSVDRSKNTLYLQMNSLRAEDTAVYYCARNLGPSFYFDYWGQGTLVTVSS
VL: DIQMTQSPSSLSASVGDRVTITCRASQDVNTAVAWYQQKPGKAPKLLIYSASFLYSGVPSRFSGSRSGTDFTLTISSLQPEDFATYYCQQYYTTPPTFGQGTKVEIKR
B2: SEQ ID NO: 9 light chain paired with Anti-HER2_D2 heavy chain control (SEQ ID NO: 92) (antibody, human IgG1, kappa, V domains shown)
VH: B1 VH
VL: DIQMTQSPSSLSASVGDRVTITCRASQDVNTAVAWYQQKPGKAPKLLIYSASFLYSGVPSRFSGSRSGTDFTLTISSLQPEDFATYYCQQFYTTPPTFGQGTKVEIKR
B3: Anti-HER2_D2 heavy chain comprising the VH region of SEQ ID NO: 2 paired with Anti-HER2_D4 light chain control (SEQ ID NO: 87) (antibody, V domains shown)
VH: B1 VH with S103L
VL: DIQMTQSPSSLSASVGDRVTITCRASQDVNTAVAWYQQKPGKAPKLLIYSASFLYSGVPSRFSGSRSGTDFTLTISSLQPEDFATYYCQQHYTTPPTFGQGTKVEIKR
B4: Anti-HER2_D2 heavy chain comprising the VH region of SEQ ID NO: 65 paired with Anti-HER2_D4 light chain control (SEQ ID NO: 87) (antibody, V domains shown)
VH: B1 VH with Q62H
VL: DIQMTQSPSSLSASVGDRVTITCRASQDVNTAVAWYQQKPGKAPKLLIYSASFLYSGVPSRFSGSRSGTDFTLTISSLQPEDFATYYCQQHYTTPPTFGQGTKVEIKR
B5: Anti-HER2_D4 light chain control (SEQ ID NO: 87) paired with Anti-HER2_D2 heavy chain control (SEQ ID NO: 92) (antibody, human IgG1, kappa, V domains shown)
VH: B1 VH
VL: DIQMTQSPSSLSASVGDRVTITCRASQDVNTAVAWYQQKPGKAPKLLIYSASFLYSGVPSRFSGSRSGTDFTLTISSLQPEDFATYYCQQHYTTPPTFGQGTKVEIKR
B6: Anti-HER2_D2 heavy chain comprising the VH region of SEQ ID NO: 70 paired with Anti-HER2_D4 light chain control (SEQ ID NO: 87) (antibody, V domains shown)
VH: B1 VH with S103Y
VL: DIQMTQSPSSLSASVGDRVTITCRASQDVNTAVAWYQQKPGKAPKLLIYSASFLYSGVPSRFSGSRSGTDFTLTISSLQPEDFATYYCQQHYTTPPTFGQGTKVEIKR
B7: Anti-HER2_D2 heavy chain comprising the VH region of SEQ ID NO: 66 paired with Anti-HER2_D4 light chain control (SEQ ID NO: 87) (antibody, V domains shown)
VH: B1 VH with Q62T
VL: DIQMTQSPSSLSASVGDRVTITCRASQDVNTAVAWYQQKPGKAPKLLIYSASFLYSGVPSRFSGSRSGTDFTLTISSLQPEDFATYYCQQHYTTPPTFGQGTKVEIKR
B8: Anti-HER2_D2 heavy chain comprising the VH region of SEQ ID NO: 1 paired with Anti-HER2_D4 light chain control (SEQ ID NO: 87) (antibody, V domains shown)
VH: B1 VH with G57Q
VL: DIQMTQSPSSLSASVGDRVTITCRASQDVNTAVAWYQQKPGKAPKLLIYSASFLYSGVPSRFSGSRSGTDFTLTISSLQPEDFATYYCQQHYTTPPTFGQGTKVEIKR
B9: Anti-HER2_D2 heavy chain comprising the VH region of SEQ ID NO: 69 paired with Anti-HER2_D4 light chain control (SEQ ID NO: 87) (antibody, V domains shown)
VH: B1 VH with S103D
VL: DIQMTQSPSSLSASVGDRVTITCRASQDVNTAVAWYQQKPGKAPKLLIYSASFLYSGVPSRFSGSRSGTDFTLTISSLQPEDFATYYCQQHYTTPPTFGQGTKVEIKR
B10: Anti-HER2_D2 heavy chain comprising the VH region of SEQ ID NO: 60 paired with Anti-HER2_D4 light chain control (SEQ ID NO: 87) (antibody, V domains shown)
VH: B1 VH with T28N
VL: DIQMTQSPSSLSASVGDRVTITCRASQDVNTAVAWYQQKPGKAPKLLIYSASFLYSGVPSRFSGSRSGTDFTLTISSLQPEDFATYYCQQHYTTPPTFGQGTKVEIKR
B11: Anti-HER2_D2 heavy chain comprising the VH region of SEQ ID NO: 67 paired with Anti-HER2_D4 light chain control (SEQ ID NO: 87) (antibody, V domains shown)
VH: B1 VH with S103W
VL: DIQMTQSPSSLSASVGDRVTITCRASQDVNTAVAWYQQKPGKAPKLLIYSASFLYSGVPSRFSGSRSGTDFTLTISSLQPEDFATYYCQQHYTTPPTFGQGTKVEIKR
B12: Anti-HER2_D2 heavy chain comprising the VH region of SEQ ID NO: 64 paired with Anti-HER2_D4 light chain control (SEQ ID NO: 87) (antibody, V domains shown)
VH: B1 VH with Q62R
VL: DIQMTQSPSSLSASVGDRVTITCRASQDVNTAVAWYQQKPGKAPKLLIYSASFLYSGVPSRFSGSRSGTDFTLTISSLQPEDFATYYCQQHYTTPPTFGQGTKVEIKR
B13: Anti-HER2_D2 heavy chain comprising the VH region of SEQ ID NO: 62 paired with Anti-HER2_D4 light chain control (SEQ ID NO: 87) (antibody, V domains shown)
VH: B1 VH with T28M
VL: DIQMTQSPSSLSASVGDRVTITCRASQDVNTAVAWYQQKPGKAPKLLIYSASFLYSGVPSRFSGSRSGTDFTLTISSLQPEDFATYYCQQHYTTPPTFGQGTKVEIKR
B14: Anti-HER2_D2 heavy chain comprising the VH region of SEQ ID NO: 61 paired with Anti-HER2_D4 light chain control (SEQ ID NO: 87) (antibody, V domains shown)
VH: B1 VH with T28K
VL: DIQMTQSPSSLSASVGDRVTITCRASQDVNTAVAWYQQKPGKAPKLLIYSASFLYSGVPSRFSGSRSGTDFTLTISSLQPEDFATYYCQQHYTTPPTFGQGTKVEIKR
B15: Anti-HER2_D2 heavy chain comprising the VH region of SEQ ID NO: 68 paired with Anti-HER2_D4 light chain control (SEQ ID NO: 87) (antibody, V domains shown)
VH: B1 VH with S103F
VL: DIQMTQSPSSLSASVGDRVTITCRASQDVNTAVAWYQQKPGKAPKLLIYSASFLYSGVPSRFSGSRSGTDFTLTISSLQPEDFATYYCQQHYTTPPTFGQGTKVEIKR
B16: Anti-HER2_D2 heavy chain comprising the VH region of SEQ ID NO: 63 paired with Anti-HER2_D4 light chain control (SEQ ID NO: 87) (antibody, V domains shown)
VH: B1 VH with T28H
VL: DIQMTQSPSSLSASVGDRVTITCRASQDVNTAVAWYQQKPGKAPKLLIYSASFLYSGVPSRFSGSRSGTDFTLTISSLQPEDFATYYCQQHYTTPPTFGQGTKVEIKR
B17: SEQ ID NO: 10 light chain paired with anti-HER2_D2 heavy chain comprising the VH region of SEQ ID NO: 1 (antibody, V domains shown)
VH: B1 VH with G57Q
VL: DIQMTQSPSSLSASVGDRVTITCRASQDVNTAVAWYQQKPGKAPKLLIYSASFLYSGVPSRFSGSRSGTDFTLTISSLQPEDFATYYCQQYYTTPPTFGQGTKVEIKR
B18: SEQ ID NO: 10 light chain paired with anti-HER2_D2 heavy chain comprising the VH region of SEQ ID NO: 2 (antibody, V domains shown)
VH: B1 VH with S103L
VL: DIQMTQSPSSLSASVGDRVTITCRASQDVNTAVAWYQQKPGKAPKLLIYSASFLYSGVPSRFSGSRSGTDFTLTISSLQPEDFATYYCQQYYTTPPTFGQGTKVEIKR
B19: SEQ ID NO: 10 light chain paired with anti-HER2_D2 heavy chain comprising the VH region of SEQ ID NO: 3 (antibody, V domains shown)
VH: B1 VH with G57Q, S103L
VL: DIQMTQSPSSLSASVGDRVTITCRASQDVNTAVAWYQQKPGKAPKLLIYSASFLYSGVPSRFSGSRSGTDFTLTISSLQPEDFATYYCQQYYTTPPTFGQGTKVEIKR
B20: Anti-HER2_D2 light chain control (SEQ ID NO: 94) paired with Anti-HER2_D4 heavy chain control (SEQ ID NO: 93) (antibody, human IgG1, kappa, V domains shown)
VH: not shown
VL: DIQMTQSPSSLSASVGDRVTITCKASQDVSIGVAWYQQKPGKAPKLLIYSASYRYTGVPSRFSGSGSGTDFTLTISSLQPEDFATYYCQQYYIYPYTFGQGTKVEIKR

target: T1, recombinant HER2 extracellular domain (ECD) (human, UniProt P04626 23-652); assay: SPR (Biacore 8K), antibody captured by anti-human Fab, HER2 ECD injected, 1:1 fit
T1 construct: extracellular domain; also called HER2 ECD
Experimental: (§1) HER2 extracellular domain (ECD) binding affinities of engineered anti-HER2 antibodies were measured by SPR using a Biacore 8K instrument. Antibodies were captured on Biacore™ Series S CM5 sensor chips immobilized with mouse anti-human Fab (human Fab capture kit from GE Healthcare) followed by injections of serial 3-fold dilutions of recombinant HER2 ECD at a flow rate of 30 μL/min. Each sample was analyzed using a 3-minute association followed by a 10-minute dissociation. After each injection, the sensor chip was regenerated using a 50 mM glycine pH2.0 regeneration buffer. A 1:1 Languir model of simultaneous fitting of kₒₙ and koff was used for kinetics analysis.

Kd | Binder
14 nM | B1
13 nM | B2

target: T1, recombinant HER2 extracellular domain …; assay: as above; remark: another data set of the same source
Experimental: as §1

Kd | Binder
28 nM | B3
35 nM | B4
42 nM | B5
30 nM | B6
32.3 nM | B7
28 nM | B8
10.2 nM | B9
28 nM | B10
6.1 nM | B11
21 nM | B12
18.3 nM | B13
17.5 nM | B14
9.8 nM | B15
22.1 nM | B16

target: T1, recombinant HER2 extracellular domain …; assay: as above; remark: another data set of the same source
Experimental: as §1

Kd | Binder
4.2 nM | B17
6.2 nM | B18
2.1 nM | B19

target: T1, recombinant HER2 extracellular domain …; assay: SPR (Biacore 8K), antibody captured by anti-human Fab, HER2 ECD injected

binding result | Binder
no binding | B20

target: T1, recombinant HER2 extracellular domain …; assay: SPR (Biacore 8K), antibody captured by anti-human Fab, HER2 ECD injected, 1:1 fit; LC SEQ ID NO: 87 paired with Anti-HER2_D2 heavy chain control (SEQ ID NO: 92)
Experimental: as §1

Kd | Binder
41 nM | B5
